B1: Retinoblastoma-associated protein (Homo sapiens), P06400 (parent)
chain: MPPKTPRKTAATAAAAAAEPPAPPPPPPPEEDPEQDSGPEDLPLVRLEFEETEEPDFTALCQKLKIPDHVRERAWLTWEKVSSVDGVLGGYIQKKKELWGICIFIAAVDLDEMSFTFTELQKNIEISVHKFFNLLKEIDTSTKVDNAMSRLLKKYDVLFALFSKLERTCELIYLTQPSSSISTEINSALVLKVSWITFLLAKGEVLQMEDDLVISFQLMLCVLDYFIKLSPPMLLKEPYKTAVIPINGSPRTPRRGQNRSARIAKQLENDTRIIEVLCKEHECNIDEVKNVYFKNFIPFMNSLGLVTSNGLPEVENLSKRYEEIYLKNKDLDARLFLDHDKTLQTDSIDSFETQRTPRKSNLDEEVNVIPPHTPVRTVMNTIQQLMMILNSASDQPSENLISYFNNCTVNPKESILKRVKDIGYIFKEKFAKAVGQGCVEIGSQRYKLGVRLYYRVMESMLKSEEERLSIQNFSKLLNDNIFHMSLLACALEVVMATYSRSTSQNLDSGTDLSFPWILNVLNLKAFDFYKVIESFIKAEGNLTREMIKHLERCEHRIMESLAWLSDSPLFDLIKQSKDREGPTDHLESACPLNLPLQNNHTAADMYLSPVRSPKKKGSTTRVNSTANAETQATSAFQTQKPLKSTSLSLFYKKVYRLAYLRLNTLCERLLSEHPELEHIIWTLFQHTLQNEYELMRDRHLDQIMMCSMYGICKVKNIDLKFKIIVTAYKDLPHAVQETFKRVLIKEEEYDSIIVFYNSVFMQRLKTNILQYASTRPPTLSPIPHIPRSPYKFPSSPLRIPGGNIYISPLKSPYKISEGLPTPTKMTPRSRILVSIGESFGTSEKFQKINQMVCNSDRVLKRSAEGSNPPKPLKKLRFDIEGSDEADGSKHLPGESKFQQKLAEMTSTRTRMQKQKMNDSMDTSNKEEK

How the values were obtained:
e2f1_human E2F1, Q01094 [1] = variants of: B1; conditions: with e2f1_human E2F1, Q01094
e2f1_human E2F1, Q01094 [2] = variants of: B1; conditions: with e2f1_human E2F1, Q01094; remark: listed apart in the source
ve7_hpv16 E7, P03129 [3] = variants of: B1; conditions: with ve7_hpv16 E7, P03129
ve7_hpv16 E7, P03129 [4] = variants of: B1; conditions: with ve7_hpv16 E7, P03129; remark: listed apart in the source

e2f1_human E2F1, Q01094, sequence (Q01094 whole entry): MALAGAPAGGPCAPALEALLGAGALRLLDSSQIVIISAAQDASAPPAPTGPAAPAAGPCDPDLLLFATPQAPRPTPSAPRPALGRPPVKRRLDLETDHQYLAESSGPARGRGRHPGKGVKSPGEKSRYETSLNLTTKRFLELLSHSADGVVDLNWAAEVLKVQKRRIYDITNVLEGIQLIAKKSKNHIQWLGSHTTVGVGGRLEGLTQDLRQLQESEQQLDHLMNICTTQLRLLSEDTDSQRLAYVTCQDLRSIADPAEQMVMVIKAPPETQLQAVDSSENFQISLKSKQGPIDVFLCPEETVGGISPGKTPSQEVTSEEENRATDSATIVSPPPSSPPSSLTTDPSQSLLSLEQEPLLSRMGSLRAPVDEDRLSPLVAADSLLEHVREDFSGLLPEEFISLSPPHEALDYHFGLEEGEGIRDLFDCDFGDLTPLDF
ve7_hpv16 E7, P03129, sequence (P03129 whole entry): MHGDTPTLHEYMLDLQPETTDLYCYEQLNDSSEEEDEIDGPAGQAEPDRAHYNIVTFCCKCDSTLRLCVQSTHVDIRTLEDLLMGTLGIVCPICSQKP

| Variant | effect of a mutation on the interaction (e2f1_human E2F1, Q01094 [1]) | effect of a mutation on the interaction (e2f1_human E2F1, Q01094 [2]) | effect of a mutation on the interaction (ve7_hpv16 E7, P03129 [3]) | effect of a mutation on the interaction (ve7_hpv16 E7, P03129 [4]) |
| --- | --- | --- | --- | --- |
| I703V | decreasing interaction strength | disrupting interaction strength | decreasing interaction strength |  |
| I703F | decreasing interaction strength | disrupting interaction strength | decreasing interaction strength | disrupting interaction strength |
| R741H | decreasing interaction strength |  | decreasing interaction strength |  |
| R741C | decreasing interaction strength |  | decreasing interaction strength |  |
| R741S | decreasing interaction strength |  | decreasing interaction strength |  |
| M761L | decreasing interaction strength |  | increasing interaction strength |  |
| M704V | decreasing interaction strength | disrupting interaction strength | decreasing interaction strength |  |
| V754G | decreasing interaction strength |  | decreasing interaction strength |  |
| T738I | decreasing interaction strength | disrupting interaction strength | decreasing interaction strength | disrupting interaction strength |
| R621C |  | decreasing interaction strength | decreasing interaction strength |  |
| R763T | decreasing interaction strength |  | decreasing interaction strength |  |
| S751Y | decreasing interaction strength | disrupting interaction strength | disrupting interaction strength |  |
| S751C | decreasing interaction strength | disrupting interaction strength | decreasing interaction strength |  |

From IntAct's records for PubMed 39938803
